B1: Twister Ribozyme (parent)
chain: AACACUGCCAAUGCCGGUCCCAAGCCCGGAUAAAAGUGGAGGGGGCGG

Variants of: B1
Assay: self-cleavage, relative activity (ratio to wild type); higher = more cleavage; co-transcriptional

Variant | self-cleavage
AACACUGCCAAUGCCGGUCCCAAGCGCGGAUAAAAGUGCAGGGGGCGG [C26G G39C] | 0.119
AACACUGCCAAUGCCGGUCCCAAGCGCGGAUAAAAGUGUAGGGGGCGG [C26G G39U] | 0.103
AACACUGCCAAUGCCGGUCCCAAGCGCGGAUAAAAGUGGACGGGGCGG [C26G G41C] | 0.0955
AACACUGCCAAUGCCGGUCCCAAGCGCGGAUAAAAGUGGAUGGGGCGG [C26G G41U] | 0.0825
AACACUGCCAAUGCCGGUCCCAAGCGCGGAUAAAAGUGGAGAGGGCGG [C26G G42A] | 0.103
AACACUGCCAAUGCCGGUCCCAAGCGCGGAUAAAAGUGGAGCGGGCGG [C26G G42C] | 0.139
AACACUGCCAAUGCCGGUCCCAAGCGCGGAUAAAAGUGGAGGAGGCGG [C26G G43A] | 0.128
AACACUGCCAAUGCCGGUCCCAAGCGCGGAUAAAAGUGGAGGCGGCGG [C26G G43C] | 0.141
AACACUGCCAAUGCCGGUCCCAAGCGCGGAUAAAAGUGGAGGGAGCGG [C26G G44A] | 0.515
AACACUGCCAAUGCCGGUCCCAAGCGCGGAUAAAAGUGGAGGGUGCGG [C26G G44U] | 0.184
AACACUGCCAAUGCCGGUCCCAAGCGCGGAUAAAAGUGGAGGGGACGG [C26G G45A] | 0.154
AACACUGCCAAUGCCGGUCCCAAGCGCGGAUAAAAGUGGAGGGGCCGG [C26G G45C] | 0.117
AACACUGCCAAUGCCGGUCCCAAGCGCGGAUAAAAGUGGAGGGGGCAG [C26G G47A] | 0.177
AACACUGCCAAUGCCGGUCCCAAGCGCGGAUAAAAGUGGAGGGGGCCG [C26G G47C] | 0.145
AACACUGCCAAUGCCGGUCCCAAGCGCGGAUAAAAGUGGAGGGGGCUG [C26G G47U] | 0.116
AACACUGCCAAUGCCGGUCCCAAGCGCGGAUAAAAGUGGAGGGGGCGA [C26G G48A] | 0.107
AACACUGCCAAUGCCGGUCCCAAGCGCGGAGAAAAGUGGAGGGGGCGG [C26G U31G] | 0.348
AACACUGCCAAUGCCGGUCCCAAGCUCGGAUAAAAGUGGAGGGGGCGG [C26U] | 0.601
AACACUGCCAAUGCCGGUCCCAAGCUCGGCUAAAAGUGGAGGGGGCGG [C26U A30C] | 0.0974
AACACUGCCAAUGCCGGUCCCAAGCUCGGGUAAAAGUGGAGGGGGCGG [C26U A30G] | 0.419
AACACUGCCAAUGCCGGUCCCAAGCUCGGAUCAAAGUGGAGGGGGCGG [C26U A32C] | 0.451
AACACUGCCAAUGCCGGUCCCAAGCUCGGAUGAAAGUGGAGGGGGCGG [C26U A32G] | 0.411
AACACUGCCAAUGCCGGUCCCAAGCUCGGAUUAAAGUGGAGGGGGCGG [C26U A32U] | 0.34
AACACUGCCAAUGCCGGUCCCAAGCUCGGAUAAGAGUGGAGGGGGCGG [C26U A34G] | 0.147
AACACUGCCAAUGCCGGUCCCAAGCUCGGAUAAACGUGGAGGGGGCGG [C26U A35C] | 0.446
AACACUGCCAAUGCCGGUCCCAAGCUCGGAUAAAGGUGGAGGGGGCGG [C26U A35G] | 0.169
AACACUGCCAAUGCCGGUCCCAAGCUCGGAUAAAUGUGGAGGGGGCGG [C26U A35U] | 0.553

Variant | self-cleavage
AACACUGCCAAUGCCGGUCCCAAGCUAGGAUAAAAGUGGAGGGGGCGG [C26U C27A] | 0.102
AACACUGCCAAUGCCGGUCCCAAGCUGGGAUAAAAGUGGAGGGGGCGG [C26U C27G] | 0.0958
AACACUGCCAAUGCCGGUCCCAAGCUUGGAUAAAAGUGGAGGGGGCGG [C26U C27U] | 0.115
AACACUGCCAAUGCCGGUCCCAAGCUCAGAUAAAAGUGGAGGGGGCGG [C26U G28A] | 0.106
AACACUGCCAAUGCCGGUCCCAAGCUCCGAUAAAAGUGGAGGGGGCGG [C26U G28C] | 0.134
AACACUGCCAAUGCCGGUCCCAAGCUCUGAUAAAAGUGGAGGGGGCGG [C26U G28U] | 0.142
AACACUGCCAAUGCCGGUCCCAAGCUCGCAUAAAAGUGGAGGGGGCGG [C26U G29C] | 0.0821
AACACUGCCAAUGCCGGUCCCAAGCUCGUAUAAAAGUGGAGGGGGCGG [C26U G29U] | 0.204
AACACUGCCAAUGCCGGUCCCAAGCUCGGAUAAAAAUGGAGGGGGCGG [C26U G36A] | 0.0777
AACACUGCCAAUGCCGGUCCCAAGCUCGGAUAAAAUUGGAGGGGGCGG [C26U G36U] | 0.133
AACACUGCCAAUGCCGGUCCCAAGCUCGGAUAAAAGUAGAGGGGGCGG [C26U G38A] | 0.157
AACACUGCCAAUGCCGGUCCCAAGCUCGGAUAAAAGUCGAGGGGGCGG [C26U G38C] | 0.225
AACACUGCCAAUGCCGGUCCCAAGCUCGGAUAAAAGUGAAGGGGGCGG [C26U G39A] | 0.118
AACACUGCCAAUGCCGGUCCCAAGCUCGGAUAAAAGUGGACGGGGCGG [C26U G41C] | 0.154
AACACUGCCAAUGCCGGUCCCAAGCUCGGAUAAAAGUGGAUGGGGCGG [C26U G41U] | 0.145
AACACUGCCAAUGCCGGUCCCAAGCUCGGAUAAAAGUGGAGGGAGCGG [C26U G44A] | 0.537
AACACUGCCAAUGCCGGUCCCAAGCUCGGAUAAAAGUGGAGGGUGCGG [C26U G44U] | 0.249
AACACUGCCAAUGCCGGUCCCAAGCUCGGAUAAAAGUGGAGGGGUCGG [C26U G45U] | 0.145
AACACUGCCAAUGCCGGUCCCAAGCUCGGAUAAAAGUGGAGGGGGCGA [C26U G48A] | 0.185
AACACUGCCAAUGCCGGUCCCAAGCUCGGAUAAAAGUGGAGGGGGCGC [C26U G48C] | 0.301
AACACUGCCAAUGCCGGUCCCAAGCUCGGAUAAAAGUGGAGGGGGCGU [C26U G48U] | 0.32
AACACUGCCAAUGCCGGUCCCAAGCUCGGAAAAAAGUGGAGGGGGCGG [C26U U31A] | 0.432
AACACUGCCAAUGCCGGUCCCAAGCUCGGAUAAAAGCGGAGGGGGCGG [C26U U37C] | 0.116
AACACUGCCAAUGCCGGUCCCAAGCUCGGAUAAAAGGGGAGGGGGCGG [C26U U37G] | 0.118
AACACUGCCAAUGCCGGUCCCAAGCCAGGAUAAAAGUGGAGGGGGCGG [C27A] | 0.672
AACACUGCCAAUGCCGGUCCCAAGCCAGGCUAAAAGUGGAGGGGGCGG [C27A A30C] | 0.12
AACACUGCCAAUGCCGGUCCCAAGCCAGGUUAAAAGUGGAGGGGGCGG [C27A A30U] | 0.707

Source: the RNAGym collection of RNA variant scans (doi:10.7554/elife.80360)
